Assay results as given in patent US20210206877A1 (Genentech, published 2021).
Like-named read-outs stand apart in the source and are kept apart here.

Columns and labels:
Assay in all cases: cell-based or functional assay
[1] = target: T1, BACE1 endogenous to primary cortical neurons from E16.5 CD1 mice (mouse, UniProt P56818 46-501)
[2] = target: T1, BACE1 endogenous to primary cortical …; remark: listed apart in the source
[3] = target: T1, BACE1 endogenous to primary cortical …; remark: listed apart in the source

T1 sequence (P56818 46-501): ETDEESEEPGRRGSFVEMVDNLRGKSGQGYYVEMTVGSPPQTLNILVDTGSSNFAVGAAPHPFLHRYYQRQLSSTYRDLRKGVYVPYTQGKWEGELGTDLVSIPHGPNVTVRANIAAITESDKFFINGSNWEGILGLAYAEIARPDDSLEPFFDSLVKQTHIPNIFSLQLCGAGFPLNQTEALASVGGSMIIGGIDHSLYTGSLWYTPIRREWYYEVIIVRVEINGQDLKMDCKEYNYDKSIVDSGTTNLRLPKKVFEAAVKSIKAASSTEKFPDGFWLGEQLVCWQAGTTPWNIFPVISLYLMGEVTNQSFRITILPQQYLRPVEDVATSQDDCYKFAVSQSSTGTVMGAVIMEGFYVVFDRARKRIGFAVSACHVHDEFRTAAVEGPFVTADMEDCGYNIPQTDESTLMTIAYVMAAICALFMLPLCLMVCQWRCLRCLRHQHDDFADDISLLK

B1: antibody 6266 (antibody, V domains shown)
VH: EVQLVQSGAEVKKPGSSVKVSCKASGGTLSGYGVSWVRQAPGQGLEWMGNIIPGFGTANYAQKFQGRVTITADESTSTAYMELSSLRSEDTAVYYCARSGGTKYGMLDVWGQGTMVTVSS
VL: EIVMTQSPATLSVSPGERATLSCRASQSVSSNLAWYQQKPGQAPRLLIYGASTRATGIPARFSGSGSGTEFTLTISSLQSEDFAVYYCQQLILWPPRTFGGGTKVEIK
Q: What does the source list for B1?
A: max % inhibition, Abeta x-40 in mouse cortical neurons [1]: 87%; IC50, inhibition of Aβx-40 production in primary mouse cortical neuron cultures (sandwich ELISA of supernatants) [2]: 1.7 nM

B2: 6315 (antibody, V domains shown)
VH: QLQLQESGPGLVKPSETLSLTCTVSGGSISRGSYYWGWIRQPPGKGLEWIGMIYYSGSTWYNPSLKSRVTISVDTSKNQFSLKLSSVTAADTAVYYCARVGHGVSYFDLWGRGTLVTVSS
VL: EIVLTQSPATLSLSPGERATLSCRASQSVSSYLAWYQQKPGQAPRLLIYDASKRATGIPARFSGSGSGTDFTLTISSLEPEDFAVYYCQQSLVWPPRTFGGGAKVEIK
Q: With B2 as the binder, how does the “max % inhibition, Abeta x-40 in mouse cortical neurons” value (from here on “max % inhibition”) [3] read?
A: The value was 73%.

B3: 6314 (antibody, V domains shown)
VH: QLQLQESGPGLVKPSETLSLTCTVSGGSISRGSYYWGWIRQPPGKGLEWIGMIYYSGSTWYNPSLKSRVTISVDTSKNQFSLKLSSVTAADTAVYYCARVGHGVSYFDLWGRGTLVTVSS
VL: EIVLTQSPATLSLSPGERATLSCRASQSVSSYLAWYQQKPGQAPRLLIYDASNRATGIPARFSGSGSGTDFTLTISSLEPEDFAVYYCQQSIVWPPRTFGGGTKVEIK
Q: B3 was tested. Which “max % inhibition” value [3] did it give?
A: Its value is 71%.

B4: 6305 (antibody, V domains shown)
VH: QVQLVQSGAEVKKPGSSVKVSCKASGGTLSGYAISWVRQAPGQGLEWMGNIIPGFGTANYAQKSQGRVTITADESTSTAYMELSSLRSEDTAVYYCARSGGTRYGMLDVWGQGTMVTVSS
VL: EIVLTQSPATLSVSPGERATLSCRASQSVGSNLAWYQQKPGQAPRLLIYGASTRATGIPARFSGSGSGTEFTLTISSLQSEDFAVYYCQQSFVWPPRTFGGGTKVEIK
Q: How did the “max % inhibition” value [3] turn out when B4 was run?
A: Its value is 67%.

B5: 6313 (antibody, V domains shown)
VH: QLQLQESGPGLVKPSETLSLTCTVSGGSISRGSYYWGWIRQPPGKGLEWIGMIYYSGSTWYNPSLKSRVTISVDTSKNQFSLKLSSVTAADTAVYYCARVGHGVSYFDLWGRGTLVTVSS
VL: EIVLTQSPATLSLSPGERATLSCRASQSVSSYLAWYQQKPGQAPRLLIYDASNRATGIPARFSGSGSGTDFTLTISSLEPEDFAVYYCQQAYVWPPRTFGGGTKVEIK
Q: B5 was tested. Which “max % inhibition” value [3] did it give?
A: Its value is 67%.

B6: 6307 (antibody, V domains shown)
VH: QLQLQESGPGLVKPSETLSLTCTVSGGSISWSSYYWSWIRQPPGKGLEWIGSIYRSGRTYYNPSLKGRVTISVDTSKNQFSLKLSSVTAADTAVYYCARVGHGINYFDLWGRGTLVTVSS
VL: EIVLTQSPATLSLSPGERATLSCRASQSVSSYLAWYQQKPGQAPRLLIYDASNRATGIPARFSGSGSGTDFTLTISSLEPEDFAVYYCQQSIVWPPRTFGGGTKVEIK
Q: For B6, which “max % inhibition” value [3] is on record?
A: Its value is 68%.

B7: 6300 (antibody, V domains shown)
VH: QVQLVQSGAEVKKPGSSVKVSCKASGGTLSGYAISWVRQAPGQGLEWMGNIIPGFGTANYAQKSQGRVTITADESTSTAYMELSSLRSEDTAVYYCARSGGTRYGMLDVWGQGTMVTVSS
VL: EIVLTQSPATLSVSPGERATLSCRASQSVGSNLAWYQQKPGQAPRLLIYGASTRATGIPARFSGSGSGTEFTLTISSLQSEDFAVYYCQQSFLWPPRTFGGGTKVEIK
Q: With B7 as the binder, how does the “max % inhibition” value [3] read?
A: The value was 71%.

B8: 6308 (antibody, V domains shown)
VH: QLQLQESGPGLVKPSETLSLTCTVSGGSISWSSYYWSWIRQPPGKGLEWIGSIYRSGRTYYNPSLKSRVTISVDTSKNQFSLKLSSVTAADTAVYYCARVGHGINYFDLWGRGTLVTVSS
VL: EIVLTQSPATLSLSPGERATLSCRASQSVSSYLAWYQQKPGQAPRLLIYDASKRATGIPARFSGSGSGTDFTLTISSLEPEDFAVYYCQQSLVWPPRTFGGGTKVEIK
Q: With B8 as the binder, how does the “max % inhibition” value [3] read?
A: The value was 60%.

B9: 6303 (antibody, V domains shown)
VH: QVQLVQSGAEVKKPGSSVKVSCKASGGTLSGYAISWVRQAPGQGLEWMGNIIPGFGTANYAQKSQGRVTITADESTSTAYMELSSLRSEDTAVYYCARSGGTRYGMLDVWGQGTMVTVSS
VL: EIVMTQSPATLSVSPGERATLSCRASQSVSSNLAWYQQKPGQAPRLLIFGASTRATGIPARFSGSGSGTEFTLTISSLQSEDFAVYYCQQLLTWPPRTFGGGTKVEIK
Q: B9 was tested. Which “max % inhibition” value [3] did it give?
A: The value was 76%.

B10: 6309 (antibody, V domains shown)
VH: QLQLQESGPGLVKPSETLSLTCTVSGGSISWSSYYWSWIRQPPGKGLEWIGSIYRSGRTYYNPSLKSRVTISVDTSKNQFSLKLSSVTAADTAVYYCARVGHGINYFDLWGRGTLVTVSS
VL: EIVLTQSPATLSLSPGERATLSCRASQSVSSYLAWYQQKPGQAPRLLIYDASNRATGIPARFSGSGSGTDFTLTISSLEPEDFAVYYCQQSITWPPRTFGGGTKVEIK
Q: For B10, which “max % inhibition” value [3] is on record?
A: The value was 60%.

B11: 6310 (antibody, V domains shown)
VH: QLQLQESGPGLVKPSETLSLTCTVSGGSISWSSYYWSWIRQPPGKGLEWIGSIYRSGRTYYNPSLKSRVTISVDTSKNQFSLKLSSVTAADTAVYYCARVGHGINYFDLWGRGTLVTVSS
VL: EIVLTQSPATLSLSPGERATLSCRASQSVSSYLAWYQQKPGQAPRLLIYDASNRATGIPARFSGSGSGTDFTLTISSLEPEDFAVYYCQQSVTWPPRTFGGGTKVEIK
Q: With B11 as the binder, how does the “max % inhibition” value [3] read?
A: The value was 71%.

B12: 6311 (antibody, V domains shown)
VH: QLQLQESGPGLVKPSETLSLTCTVSGGSISWSSYYWSWIRQPPGKGLEWIGSIYRSGRTYYNPSLKSRVTISVDTSKNQFSLKLSSVTAADTAVYYCARVGHGINYFDLWGRGTLVTVSS
VL: EIVLTQSPATLSLSPGERATLSCRASQSVSSYLAWYQQKPGQAPRLLIYDASNRATGIPARFSGSGSGTDFTLTISSLEPEDFAVYYCQQSLTWPPRTFGGGTKVEIK
Q: B12 was tested. Which “max % inhibition” value [3] did it give?
A: The value was 63%.
